The source of these data is US20090304721A1 (MEDLMMUNE, published 2009).

Test [1] deals with T1, human EphA2 expressed on cells (human, UniProt P29317 24-976). As to the kind of experiment: cell-based or functional assay.
The target of test [2] is T1, human EphA2 expressed on cells. As to the kind of experiment: immunofluorescence of HUVEC cells labeled with 50 ug/ml antibody at 4 C, 0 or 20 min at 37 C, fixed, permeabilized, AlexaFluor 488 goat anti-human IgG, DAPI mounting medium.
The target of test [3] is T2, mouse EphA2 expressed on cells (mouse, UniProt Q03145 26-977).
T2 construct: whole, on cells
As to the kind of experiment: flow cytometry on tumor cell lines, 1 ug antibody, PE anti-human IgG. The procedure: (§1) The cells were then washed 2× with cold PBS and stained for 30 minutes at 4° C. with secondary Abs (Phycoerythin conjugated goat-a-human IgG, Biosource). Fluorescence analysis was performed using a FACS Calibur flow cytometer (BD Biosciences).
Background: In flow cytometry, cells or beads pass a laser one at a time.

Test [4] has as its target T1, human EphA2 expressed on cells. As to the kind of experiment: flow cytometry on twelve human cell lines, 1 ug primary antibody per 2x10^5 cells, PE goat anti-human IgG; y axis Mean Fl. Shift (%). On the procedure:
as §1

T1 sequence (P29317 24-976): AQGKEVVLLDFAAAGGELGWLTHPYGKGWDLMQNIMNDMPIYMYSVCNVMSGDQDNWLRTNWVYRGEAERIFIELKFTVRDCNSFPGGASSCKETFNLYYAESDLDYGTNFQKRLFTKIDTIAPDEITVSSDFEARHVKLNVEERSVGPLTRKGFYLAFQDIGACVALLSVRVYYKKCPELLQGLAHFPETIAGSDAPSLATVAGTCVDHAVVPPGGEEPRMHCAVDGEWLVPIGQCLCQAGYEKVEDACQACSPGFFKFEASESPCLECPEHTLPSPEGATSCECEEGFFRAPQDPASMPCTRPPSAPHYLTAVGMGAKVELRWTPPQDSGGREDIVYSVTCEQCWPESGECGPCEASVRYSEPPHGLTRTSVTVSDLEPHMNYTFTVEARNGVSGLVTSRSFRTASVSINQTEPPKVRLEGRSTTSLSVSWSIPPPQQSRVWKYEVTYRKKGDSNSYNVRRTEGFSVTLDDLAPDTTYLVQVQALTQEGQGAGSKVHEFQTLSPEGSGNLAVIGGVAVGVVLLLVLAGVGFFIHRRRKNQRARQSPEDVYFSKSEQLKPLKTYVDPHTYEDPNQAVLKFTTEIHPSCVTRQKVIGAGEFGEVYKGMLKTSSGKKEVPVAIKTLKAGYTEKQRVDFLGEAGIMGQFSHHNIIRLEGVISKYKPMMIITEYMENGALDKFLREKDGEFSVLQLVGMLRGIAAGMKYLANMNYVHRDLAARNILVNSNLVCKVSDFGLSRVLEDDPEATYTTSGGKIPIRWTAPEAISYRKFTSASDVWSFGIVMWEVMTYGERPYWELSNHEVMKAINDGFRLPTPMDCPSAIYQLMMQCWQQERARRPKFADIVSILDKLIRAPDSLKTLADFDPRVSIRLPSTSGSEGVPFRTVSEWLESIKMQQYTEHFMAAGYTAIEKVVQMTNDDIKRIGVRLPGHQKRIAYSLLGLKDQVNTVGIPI
T2 sequence (Q03145 26-977): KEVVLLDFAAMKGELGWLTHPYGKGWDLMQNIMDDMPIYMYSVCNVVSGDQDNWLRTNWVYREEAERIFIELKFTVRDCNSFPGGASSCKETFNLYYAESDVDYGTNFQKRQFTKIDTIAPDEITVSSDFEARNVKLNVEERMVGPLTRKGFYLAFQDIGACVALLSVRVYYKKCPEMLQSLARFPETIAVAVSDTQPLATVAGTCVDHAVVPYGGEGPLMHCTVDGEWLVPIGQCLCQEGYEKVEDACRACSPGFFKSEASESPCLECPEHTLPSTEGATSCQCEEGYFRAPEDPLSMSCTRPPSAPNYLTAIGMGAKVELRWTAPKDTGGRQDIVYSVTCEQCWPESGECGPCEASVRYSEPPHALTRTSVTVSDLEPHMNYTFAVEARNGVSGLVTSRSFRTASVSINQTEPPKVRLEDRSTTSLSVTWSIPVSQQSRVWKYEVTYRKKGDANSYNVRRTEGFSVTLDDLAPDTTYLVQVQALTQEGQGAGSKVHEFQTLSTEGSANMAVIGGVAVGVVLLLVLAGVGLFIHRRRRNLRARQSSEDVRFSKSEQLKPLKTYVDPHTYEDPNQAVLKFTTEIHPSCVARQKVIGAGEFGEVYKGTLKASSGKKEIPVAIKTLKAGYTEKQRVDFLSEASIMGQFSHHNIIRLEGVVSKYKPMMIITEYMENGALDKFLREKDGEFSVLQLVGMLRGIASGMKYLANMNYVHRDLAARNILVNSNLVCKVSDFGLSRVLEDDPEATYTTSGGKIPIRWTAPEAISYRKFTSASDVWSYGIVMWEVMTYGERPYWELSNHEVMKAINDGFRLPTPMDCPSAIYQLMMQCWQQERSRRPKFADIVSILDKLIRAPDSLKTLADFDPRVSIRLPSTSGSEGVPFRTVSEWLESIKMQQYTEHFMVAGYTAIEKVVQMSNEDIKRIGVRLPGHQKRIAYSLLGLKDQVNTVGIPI

B1: 3F2mcMMAF (antibody, V domains shown)
VH: EVQLVESGGGVVRPGGSLRLSCAASGFTVSDYSMNWVRQAPGKGLEWIGFIRNKANAYTTEYSASVKGRFTISRDDSKNTLYLQMNSLKTEDTAVYYCTTYPRYHAMDSWGQGTMVTVSS
VL: AIQLTQSPSSLSASVGDRVTITCRASQSISNNLHWYLQKPGQSPQLLIYYGFQSISGVPSRFSGSGSGTDFTLTISSLQPEDFATYYCQQANSWPLTFGGGTKLEIK
modifications: antibody conjugated to monomethylauristatin F (MMAF) through a maleimidocaproyl-citrulline (mc) linker; attachment residues not stated
Turning to B1, the “IC50 (read off the curve), growth inhibition of MCF10-A cells” value in test [1] was around 0.02 µM.

B2: anti-EphA2 antibody 3F2 (antibody, V domains shown)
VH: B1 VH
VL: B1 VL
notes: Humanized agonistic monoclonal antibody
Take B2: in test [2], the binding result was “binds”.

B3: anti-EphA2 antibody 1H3 (antibody, V domains shown)
VH: EVQLLESGGGLVQPGGSLRLSCAASGFTFSMYAMRWVRQAPGKGLEWVSVIGPSGGWTPYADSVKGRFTISRDNSKNTLYLQMNSLRAEDTAVYYCARDRGIYGMDVWGQGTTVTVSS
VL: DIQMTQSPSFLSASVGDRVTITCRASQGISSYLAWYQQKPGKAPKLLIYAASTLQSGVPSRFSGSGSGTEFTLTISSLQPEDFATYYCLELNNYPFTFGLGTKVHIK
Consider B3, for which the binding result in test [3] and in test [4] was “binds” each time.
